Source: the supplement of paper PMC7125110
± gives the standard error. This sample holds only a part of the variants without activity.

B1: glmS ribozyme (parent)
chain: AUAAAAGCGCCAGAACUACAGAAAUGUAGUUGACGAGGAGGAGGUUUAUCGAAUUUUCGGCGGAUGCCUCCAAA

Key:
Conditions in all cases: with glucosamine-6-phosphate
glucosamine-6-phosphate [1] = variants of: B1; test: self-cleavage kobs at 160 uM GlcN6P; higher = faster cleavage; RNA array
In short: (§1)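 Weighted Michaelis–Menten fits across concentrations supplied kcat and KM, based on kobs from one- or two-exponential decay fits to normalised per-tile medians. The data came from barcoded ribozyme variants transcribed in situ by E. coli RNA polymerase on sequenced MiSeq chips and tracked at 37 °C by a hybridised Cy3 probe. Glucosamine-6-phosphate (40 μM to 10 mM) in HEPES/KCl/Mg(OAc)2 buffer was flowed in.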

glucosamine-6-phosphate [2] = variants of: B1; test: self-cleavage kobs at 640 uM GlcN6P; higher = faster cleavage; RNA array
In short: as §1

glucosamine-6-phosphate [3] = variants of: B1; test: self-cleavage kobs at 2500 uM GlcN6P; higher = faster cleavage; RNA array
In short: as §1

glucosamine-6-phosphate [4] = variants of: B1; test: self-cleavage kobs at 10000 uM GlcN6P; higher = faster cleavage; RNA array
In short: as §1

Row | Variant | self-cleavage kobs at 160 uM GlcN6P (glucosamine-6-phosphate [1]) [s⁻¹] | self-cleavage kobs at 640 uM GlcN6P (glucosamine-6-phosphate [2]) [s⁻¹] | self-cleavage kobs at 2500 uM GlcN6P (glucosamine-6-phosphate [3]) [s⁻¹] | self-cleavage kobs at 10000 uM GlcN6P (glucosamine-6-phosphate [4]) [s⁻¹]
1 | C8U G59U G63C | < 1e-05 | < 1e-05 | < 1e-05 | –
2 | G60U A64U C68U | < 1e-05 | < 1e-05 | < 1e-05 | –
3 | C8G C11U A48U U57G C71U | < 1e-05 | – | – | –
4 | G9A C11U C16U G63A U65G C68G | 4.96e-05 ± 1.6e-05 | 7.82e-05 ± 1.8e-05 | 3.97e-05 ± 1.5e-05 | –
5 | A36C G41U | < 1e-05 | < 1e-05 | < 1e-05 | < 1e-05
6 | A14C G66A C71U | 0.000171 ± 5.4e-05 | 0.000399 ± 9.8e-05 | 0.00114 ± 0.00023 | –
7 | A15U A33G U47G U54G C67U C71A | 0.000235 ± 8.9e-05 | 0.000303 ± 8.2e-05 | – | –
8 | A12G A52U G66U | < 1e-05 | < 1e-05 | – | –
9 | A12U A15G A36U | < 1e-05 | – | – | –
10 | G9A U30G G37U | < 1e-05 | – | – | –
11 | G35C U54C G63A | < 1e-05 | – | < 1e-05 | –
12 | C16U A33G C34A A39G | < 1e-05 | < 1e-05 | – | –
13 | G7U G38C C50A | < 1e-05 | < 1e-05 | – | –
14 | C8U U49C | < 1e-05 | < 1e-05 | < 1e-05 | < 1e-05
15 | C11U U69A | 5.24e-05 ± 1.6e-05 | 0.000191 ± 5.6e-05 | 0.000157 ± 3.2e-05 | 6.31e-05 ± 1.7e-05
16 | G32A G43A G63C | < 1e-05 | – | < 1e-05 | –
17 | A14G A39C G40U U46A A53C | < 1e-05 | – | < 1e-05 | –
18 | G38C U55A | < 1e-05 | < 1e-05 | – | –
19 | G35C U55A | < 1e-05 | < 1e-05 | < 1e-05 | –

Row | Variant | self-cleavage kobs at 160 uM GlcN6P (glucosamine-6-phosphate [1]) [s⁻¹] | self-cleavage kobs at 640 uM GlcN6P (glucosamine-6-phosphate [2]) [s⁻¹] | self-cleavage kobs at 2500 uM GlcN6P (glucosamine-6-phosphate [3]) [s⁻¹] | self-cleavage kobs at 10000 uM GlcN6P (glucosamine-6-phosphate [4]) [s⁻¹]
20 | G51A A52U | < 1e-05 | – | – | –
21 | U30A U54C C71U | 0.000251 ± 5.9e-05 | 0.00109 ± 0.00025 | 0.00391 ± 0.0014 | –
22 | A15C U31C A39U A42C | < 1e-05 | – | – | –
23 | G43A G44A U47A | < 1e-05 | – | – | –
24 | A52G C61U C68G | 0.000141 ± 4.2e-05 | 0.000189 ± 6.4e-05 | – | –
25 | A12G G38U A52U A64U | < 1e-05 | < 1e-05 | < 1e-05 | –
26 | G9A U46G U57A | < 1e-05 | < 1e-05 | < 1e-05 | –
27 | A39U G40A A64G | 0.000419 ± 0.00012 | 0.000775 ± 0.00021 | 0.00738 ± 0.0025 | –
28 | A53C C58G G60A C67U | 0.000139 ± 3.1e-05 | – | 8.04e-05 ± 2.5e-05 | –
29 | G37U G38C C71U | < 1e-05 | < 1e-05 | – | –
30 | U30G U47G | 0.000169 ± 4.9e-05 | 0.00043 ± 0.00012 | 0.00098 ± 0.0002 | –
31 | C34U C70G | 0.000827 ± 0.0004 | – | – | –
32 | A14U A33C G59A | < 1e-05 | < 1e-05 | < 1e-05 | –
33 | G37U G44A G66U | < 1e-05 | – | – | –
34 | G44A A48G G51U G59A | < 1e-05 | – | < 1e-05 | –
35 | C8U A36U G40C U56A | < 1e-05 | – | < 1e-05 | –
36 | G43U G59U G63U C68A | < 1e-05 | < 1e-05 | < 1e-05 | –
37 | A15C C34A | < 1e-05 | < 1e-05 | < 1e-05 | < 1e-05
38 | G9U A42G U46G | < 1e-05 | < 1e-05 | – | –

Row | Variant | self-cleavage kobs at 160 uM GlcN6P (glucosamine-6-phosphate [1]) [s⁻¹] | self-cleavage kobs at 640 uM GlcN6P (glucosamine-6-phosphate [2]) [s⁻¹] | self-cleavage kobs at 2500 uM GlcN6P (glucosamine-6-phosphate [3]) [s⁻¹] | self-cleavage kobs at 10000 uM GlcN6P (glucosamine-6-phosphate [4]) [s⁻¹]
39 | C16U A53G U54C | 0.000683 ± 0.00013 | 0.00193 ± 0.00028 | 0.00421 ± 0.00075 | –
40 | A15C A53C C68U | < 1e-05 | – | – | –
41 | A33U C61G C70U | < 1e-05 | – | – | –
42 | G9U C10U C16U | < 1e-05 | – | < 1e-05 | –
43 | A14G A33C U46G C58U G59U | < 1e-05 | < 1e-05 | < 1e-05 | –
44 | G35U G41U G43A | < 1e-05 | < 1e-05 | < 1e-05 | –
45 | C8A G29C C50U | < 1e-05 | – | < 1e-05 | –
46 | A36U G43A A52U G63A C67A | < 1e-05 | – | – | –
47 | A14C A42C C70G | < 1e-05 | – | – | –
48 | G13U U31A C34A A48C G62U | < 1e-05 | – | – | –
49 | U31A C34A U55A C67G | < 1e-05 | < 1e-05 | < 1e-05 | –
50 | C10A G13C C16U G51C | < 1e-05 | – | – | –
51 | G7A G38U G44C U49A A53U U56C | < 1e-05 | – | – | –
52 | A15C U31G U69G | 4.96e-05 ± 2e-05 | 0.000378 ± 9.2e-05 | – | –
53 | A14U G35C U49G | < 1e-05 | – | – | –
54 | A12U A14C C71U | 0.000143 ± 4.4e-05 | – | 0.00169 ± 0.00033 | –
55 | G13C A52G C70G | 0.000297 ± 0.00012 | 0.000164 ± 5.2e-05 | 7.21e-05 ± 3e-05 | –
56 | C10U C50G C68U C70G | 0.000109 ± 4e-05 | – | – | –
57 | A42U C61A | < 1e-05 | < 1e-05 | < 1e-05 | < 1e-05
